Three molecules from patent US20140274782A1, “AFFINITY REAGENTS AND METHODS FOR DETECTION, PURIFICATION, AND PROTEOMIC ANALYSIS OF METHYLATED PROTEINS” (The Board of Trustees of the Leland Stanford Junior …, priority 2013, published 2014) can be followed below.

One experiment concerns 3×MBT domain of L3MBTL1. The experiment is described as follows: Triple SILAC pull-down, 3xMBT/3xMBTD355N ratio (cytoplasmic, nuclear and chromatin fractions of 293T cells).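 As to all read-outs here: proteins quantified with MaxQuant, requiring at least two unique peptides and quantification in both label directions, normalized to the mean of proteins from a digested loading control.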 It is filed as binding, human. As to conditions: SILAC ratio, pull-down 3xMBT vs 3xMBTD355N; for 3xMBT/D355N UNC Heavy: experiment with UNC0638 in heavy SILAC media; for 3xMBT/D355N UNC Light: experiment with UNC0638 in light SILAC media.

In the next experiment the target is T1, G9a and GLP (Homo sapiens, UniProt Q96KQ7+Q9H9B1).
T1 sequence (Q96KQ7 2-1210 limits assumed): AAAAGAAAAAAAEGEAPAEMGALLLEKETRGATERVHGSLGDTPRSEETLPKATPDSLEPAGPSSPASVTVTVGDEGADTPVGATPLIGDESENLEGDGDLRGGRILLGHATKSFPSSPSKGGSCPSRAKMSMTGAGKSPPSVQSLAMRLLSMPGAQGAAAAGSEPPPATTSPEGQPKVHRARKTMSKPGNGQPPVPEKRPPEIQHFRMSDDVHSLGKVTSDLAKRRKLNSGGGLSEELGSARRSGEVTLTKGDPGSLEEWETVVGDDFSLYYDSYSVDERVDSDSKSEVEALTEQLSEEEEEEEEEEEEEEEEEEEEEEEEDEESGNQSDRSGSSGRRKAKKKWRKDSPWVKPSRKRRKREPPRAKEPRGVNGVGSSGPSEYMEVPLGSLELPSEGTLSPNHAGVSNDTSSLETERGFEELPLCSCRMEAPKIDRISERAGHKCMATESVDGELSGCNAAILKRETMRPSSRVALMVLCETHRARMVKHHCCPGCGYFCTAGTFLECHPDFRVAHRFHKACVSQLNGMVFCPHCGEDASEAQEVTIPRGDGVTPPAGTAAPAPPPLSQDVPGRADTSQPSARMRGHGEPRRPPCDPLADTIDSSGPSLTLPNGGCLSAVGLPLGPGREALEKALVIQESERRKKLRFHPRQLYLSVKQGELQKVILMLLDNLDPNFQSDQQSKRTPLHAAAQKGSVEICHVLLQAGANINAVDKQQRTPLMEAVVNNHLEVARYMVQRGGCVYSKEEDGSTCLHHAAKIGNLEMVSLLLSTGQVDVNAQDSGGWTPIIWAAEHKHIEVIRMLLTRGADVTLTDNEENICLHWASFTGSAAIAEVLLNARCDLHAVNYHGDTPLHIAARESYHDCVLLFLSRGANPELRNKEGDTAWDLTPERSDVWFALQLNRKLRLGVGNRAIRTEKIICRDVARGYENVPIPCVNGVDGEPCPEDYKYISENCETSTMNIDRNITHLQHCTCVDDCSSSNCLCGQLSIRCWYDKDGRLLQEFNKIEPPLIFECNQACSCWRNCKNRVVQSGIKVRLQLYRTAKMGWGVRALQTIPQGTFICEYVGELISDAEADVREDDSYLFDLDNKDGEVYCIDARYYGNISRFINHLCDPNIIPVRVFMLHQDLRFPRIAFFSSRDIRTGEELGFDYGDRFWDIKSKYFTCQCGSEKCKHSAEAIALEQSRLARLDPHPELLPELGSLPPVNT
T1 sequence (Q9H9B1 2-1298 limits assumed): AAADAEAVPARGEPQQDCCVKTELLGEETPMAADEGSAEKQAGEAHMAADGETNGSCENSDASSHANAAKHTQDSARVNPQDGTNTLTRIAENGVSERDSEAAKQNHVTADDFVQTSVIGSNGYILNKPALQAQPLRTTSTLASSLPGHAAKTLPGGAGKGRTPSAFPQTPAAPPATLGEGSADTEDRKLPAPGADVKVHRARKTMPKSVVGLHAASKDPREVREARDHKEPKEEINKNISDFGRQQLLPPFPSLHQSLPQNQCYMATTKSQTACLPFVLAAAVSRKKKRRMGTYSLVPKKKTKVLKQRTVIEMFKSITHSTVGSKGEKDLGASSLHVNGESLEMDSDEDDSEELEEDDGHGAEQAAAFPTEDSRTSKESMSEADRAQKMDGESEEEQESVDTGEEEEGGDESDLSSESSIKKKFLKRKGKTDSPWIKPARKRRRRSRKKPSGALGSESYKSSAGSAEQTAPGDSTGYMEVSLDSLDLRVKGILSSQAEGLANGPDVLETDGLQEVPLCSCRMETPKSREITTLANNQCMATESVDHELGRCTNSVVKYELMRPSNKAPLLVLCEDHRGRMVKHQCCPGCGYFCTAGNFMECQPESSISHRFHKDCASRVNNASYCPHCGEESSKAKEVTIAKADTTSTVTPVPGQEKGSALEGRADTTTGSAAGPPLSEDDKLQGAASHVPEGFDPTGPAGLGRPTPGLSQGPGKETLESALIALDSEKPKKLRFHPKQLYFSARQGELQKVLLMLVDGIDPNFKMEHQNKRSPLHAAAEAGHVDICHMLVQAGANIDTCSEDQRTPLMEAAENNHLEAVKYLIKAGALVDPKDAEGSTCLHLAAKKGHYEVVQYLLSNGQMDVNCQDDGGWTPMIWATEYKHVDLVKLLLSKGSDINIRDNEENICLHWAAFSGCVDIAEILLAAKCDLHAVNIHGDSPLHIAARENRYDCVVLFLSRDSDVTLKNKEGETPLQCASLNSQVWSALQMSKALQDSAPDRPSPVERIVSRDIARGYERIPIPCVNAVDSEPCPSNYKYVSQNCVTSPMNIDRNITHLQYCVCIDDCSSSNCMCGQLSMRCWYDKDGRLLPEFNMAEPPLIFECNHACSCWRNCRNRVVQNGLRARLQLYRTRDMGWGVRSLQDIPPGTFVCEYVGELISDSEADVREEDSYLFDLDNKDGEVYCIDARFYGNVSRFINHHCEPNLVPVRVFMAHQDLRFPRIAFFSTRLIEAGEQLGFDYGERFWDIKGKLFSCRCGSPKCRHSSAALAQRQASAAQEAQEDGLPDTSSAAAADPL
The experiment is described as follows: Triple SILAC pull-down after UNC0638 treatment of 293T cells, DMSO/UNC0638 ratio of protein captured by 3×MBT.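 As to all read-outs here: mass spectrometry (Q-Exactive) SILAC quantitation, DMSO/UNC0638 ratio computed after subtracting 3×MBTD355N mutant pull-down background, only proteins with at least twofold 3×MBT over mutant signal considered.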 It is filed as cell-based. Set-up: cells were treated for 24 hours with UNC0638 at 2.5 μM or DMSO vehicle control; endogenous in cells; host or cells: HEK 293T. As to conditions: for Relative to UNC0638 UNC Heavy / Relative to UNC0638 UNC Light: SILAC ratio DMSO/UNC0638 of protein pulled down with 3xMBT; for Relative to UNC0638 UNC Heavy: UNC0638 in heavy SILAC media; for Relative to UNC0638 UNC Light: UNC0638 in light SILAC media; for Relative to UNC0638 Average: average of UNC Light and UNC Heavy experiments.

B1: RFC1 (protein, UniProt P35251 1-1148, looked up)
Replication factor C subunit 1: MDIRKFFGVIPSGKKLVSETVKKNEKTKSDEETLKAKKGIKEIKVNSSRKEDDFKQKQPSKKKRIIYDSDSESEETLQVKNAKKPPEKLPVSSKPGKISRQDPVTYISETDEEDDFMCKKAASKSKENGRSTNSHLGTSNMKKNEENTKTKNKPLSPIKLTPTSVLDYFGTGSVQRSNKKMVASKRKELSQNTDESGLNDEAIAKQLQLDEDAELERQLHEDEEFARTLAMLDEEPKTKKARKDTEAGETFSSVQANLSKAEKHKYPHKVKTAQVSDERKSYSPRKQSKYESSKESQQHSKSSADKIGEVSSPKASSKLAIMKRKEESSYKEIEPVASKRKENAIKLKGETKTPKKTKSSPAKKESVSPEDSEKKRTNYQAYRSYLNREGPKALGSKEIPKGAENCLEGLIFVITGVLESIERDEAKSLIERYGGKVTGNVSKKTNYLVMGRDSGQSKSDKAAALGTKIIDEDGLLNLIRTMPGKKSKYEIAVETEMKKESKLERTPQKNVQGKRKISPSKKESESKKSRPTSKRDSLAKTIKKETDVFWKSLDFKEQVAEETSGDSKARNLADDSSENKVENLLWVDKYKPTSLKTIIGQQGDQSCANKLLRWLRNWQKSSSEDKKHAAKFGKFSGKDDGSSFKAALLSGPPGVGKTTTASLVCQELGYSYVELNASDTRSKSSLKAIVAESLNNTSIKGFYSNGAASSVSTKHALIMDEVDGMAGNEDRGGIQELIGLIKHTKIPIICMCNDRNHPKIRSLVHYCFDLRFQRPRVEQIKGAMMSIAFKEGLKIPPPAMNEIILGANQDIRQVLHNLSMWCARSKALTYDQAKADSHRAKKDIKMGPFDVARKVFAAGEETAHMSLVDKSDLFFHDYSIAPLFVQENYIHVKPVAAGGDMKKHLMLLSRAADSICDGDLVDSQIRSKQNWSLLPAQAIYASVLPGELMRGYMTQFPTFPSWLGKHSSTGKHDRIVQDLALHMSLRTYSSKRTVNMDYLSLLRDALVQPLTSQGVDGVQDVVALMDTYYLMKEDFENIMEISSWGGKPSPFSKLDPKVKAAFTRAYNKEAHLTPYSLQAIKASRHSTSPSLDSEYNEELNEDDSQSDEKDQDAIETDAMIKKKTKSSKPSKPEKDKEPRKGKGKSSKK
Take B1: in the experiment with 3×MBT domain of L3MBTL1, the “3xMBT/D355N UNC Heavy” value turned out to be 1.29 log base 2 and the “3xMBT/D355N UNC Light” value is −1.32 log base 2. In the experiment with G9a and GLP, the “Relative to UNC0638 UNC Heavy” value is reported as 0.61 log base 2, the “Relative to UNC0638 UNC Light” value is given as −0.18 log base 2 and the “Relative to UNC0638 Average” value stood at 0.21 log base 2.

B2: ZC3H11A (protein, UniProt O75152 1-810, looked up)
Zinc finger CCCH …: MPNQGEDCYFFFYSTCTKGDSCPFRHCEAAIGNETVCTLWQEGRCFRQVCRFRHMEIDKKRSEIPCYWENQPTGCQKLNCAFHHNRGRYVDGLFLPPSKTVLPTVPESPEEEVKASQLSVQQNKLSVQSNPSPQLRSVMKVESSENVPSPTHPPVVINAADDDEDDDDQFSEEGDETKTPTLQPTPEVHNGLRVTSVRKPAVNIKQGECLNFGIKTLEEIKSKKMKEKSKKQGEGSSGVSSLLLHPEPVPGPEKENVRTVVRTVTLSTKQGEEPLVRLSLTERLGKRKFSAGGDSDPPLKRSLAQRLGKKVEAPETNIDKTPKKAQVSKSLKERLGMSADPDNEDATDKVNKVGEIHVKTLEEILLERASQKRGELQTKLKTEGPSKTDDSTSGARSSSTIRIKTFSEVLAEKKHRQQEAERQKSKKDTTCIKLKIDSEIKKTVVLPPIVASRGQSEEPAGKTKSMQEVHIKTLEEIKLEKALRVQQSSESSTSSPSQHEATPGARRLLRITKRTGMKEEKNLQEGNEVDSQSSIRTEAKEASGETTGVDITKIQVKRCETMREKHMQKQQEREKSVLTPLRGDVASCNTQVAEKPVLTAVPGITRHLTKRLPTKSSQKVEVETSGIGDSLLNVKCAAQTLEKRGKAKPKVNVKPSVVKVVSSPKLAPKRKAVEMHAAVIAAVKPLSSSSVLQEPPAKKAAVAVVPLVSEDKSVTVPEAENPRDSLVLPPTQSSSDSSPPEVSGPSSSQMSMKTRRLSSASTGKPPLSVEDDFEKLIWEISGGKLEAEIDLDPGKDEDDLLLELSEMIDS
With B2, in the experiment on 3×MBT domain of L3MBTL1, the “3xMBT/D355N UNC Heavy” value was 2.23 log base 2 and the “3xMBT/D355N UNC Light” value is 2.81 log base 2. In the experiment with G9a and GLP, the “Relative to UNC0638 UNC Heavy” value is reported as 0.32 log base 2, the “Relative to UNC0638 UNC Light” value is recorded as 0.12 log base 2 and the “Relative to UNC0638 Average” value came to 0.22 log base 2.

B3: CHERP (protein, UniProt Q8IWX8 1-916, looked up)
Calcium homeostasis …: MEMPLPPDDQELRNVIDKLAQFVARNGPEFEKMTMEKQKDNPKFSFLFGGEFYSYYKCKLALEQQQLICKQQTPELEPAATMPPLPQPPLAPAAPIPPAQGAPSMDELIQQSQWNLQQQEQHLLALRQEQVTAAVAHAVEQQMQKLLEETQLDMNEFDNLLQPIIDTCTKDAISAGKNWMFSNAKSPPHCELMAGHLRNRITADGAHFELRLHLIYLINDVLHHCQRKQARELLAALQKVVVPIYCTSFLAVEEDKQQKIARLLQLWEKNGYFDDSIIQQLQSPALGLGQYQATLINEYSSVVQPVQLAFQQQIQTLKTQHEEFVTSLAQQQQQQQQQQQQLQMPQMEAEVKATPPPPAPPPAPAPAPAIPPTTQPDDSKPPIQMPGSSEYEAPGGVQDPAAAGPRGPGPHDQIPPNKPPWFDQPHPVAPWGQQQPPEQPPYPHHQGGPPHCPPWNNSHEGMWGEQRGDPGWNGQRDAPWNNQPDAAWNSQFEGPWNSQHEQPPWGGGQREPPFRMQRPPHFRGPFPPHQQHPQFNQPPHPHNFNRFPPRFMQDDFPPRHPFERPPYPHRFDYPQGDFPAEMGPPHHHPGHRMPHPGINEHPPWAGPQHPDFGPPPHGFNGQPPHMRRQGPPHINHDDPSLVPNVPYFDLPAGLMAPLVKLEDHEYKPLDPKDIRLPPPMPPSERLLAAVEAFYSPPSHDRPRNSEGWEQNGLYEFFRAKMRARRRKGQEKRNSGPSRSRSRSKSRGRSSSRSNSRSSKSSGSYSRSRSRSCSRSYSRSRSRSRSRSRSSRSRSRSQSRSRSKSYSPGRRRRSRSRSPTPPSSAGLGSNSAPPIPDSRLGEENKGHQMLVKMGWSGSGGLGAKEQGIQDPIKGGDVRDKWDQYKGVGVALDDPYENYRRNKSYSFIARMKARDECK
In the case of B3, in the experiment with 3×MBT domain of L3MBTL1, the “3xMBT/D355N UNC Heavy” value is listed as 1.58 log base 2 and the “3xMBT/D355N UNC Light” value was found to be 2.26 log base 2. Moreover, in the experiment with G9a and GLP, the “Relative to UNC0638 UNC Heavy” value was determined as 0.38 log base 2, the “Relative to UNC0638 UNC Light” value was found to be 0.05 log base 2 and the “Relative to UNC0638 Average” value came out at 0.22 log base 2.
